From US20200157153

Target: His-EutM-SpyCatcher (N-His-GS-EutM-GS-SpyCatcher)

B1: SpyTag-AmDH (N-His-thrombin-SpyTag-GS-Ch1-AmDH) (protein)
chain: MGSSHHHHHHSSGLVPRGSHMMGSSGAHIVMVDAYKPTKGSGGSGVDMSLVEKTSIIKDFTLFEKMSEHEQVVFCNDPATGLRAIIAIHDTTLGPALGGCRMQPYNSVEEALEDALRLSKGMTYSCAASDVDFGGGKAVIIGDPQKDKSPELFRAFGQFVDSLGGRFYTGTDMGTNMEDFIHAMKETNCIVGVPEAYGSSGNPSPATAYGVYRGMKAAAKEAFGSDSLEGKVVAVQGVGNVAYHLCRHLHEEGAKLIVTDINKEAVARAVEEFGAKAVDPNDIYGVECDIFAPCALGGIINDQTIPQLKAKVIAGSALNQLKEPRHGDMIHEMGIVYAPDYVINAGGCINVADELYGYNRERAMKKIEQIYDNIEKVFAIAKRDNIPTYVAADRMAEERIETMRKARSQFLQNGHHILSRRRAR
- relative activity after 48 hours, 1:6 SpyTag-AmDH:EutM-SpyCatcher: approximately 79% relative activity
